Data set [1] concerns HeLa Kyoto. Put plainly: solubility in G1/S (NP-40 vs SDS abundance) (log2 ratio); higher = more soluble. Particulars: cell cycle stage: G1/S.
The subject of data set [2] is HeLa Kyoto. Put plainly: melting temperature (median over replicates), in situ; higher = more thermally stable.
Data set [3] deals with HeLa Kyoto. Put plainly: solubility change mitosis vs G1/S (difference of NP-40 vs SDS log2 ratios) (log2 ratio difference); higher = more soluble in mitosis.
Data set [4] concerns HeLa Kyoto. Put plainly: thermal stability score vs G1/S (z-score of summed log2 fold changes over temperatures); higher = more thermally stable than in G1/S.
Where [5] appears, read: cell cycle stage: early G1 (4.5 h after nocodazole release).
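For melting temperature (median over replicates), in situ in this document: HeLa Kyoto cells synchronized by double thymidine or nocodazole block, proteins quantified by TMT10plex mass spectrometry, three independent biological replicates.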
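For solubility change mitosis vs G1/S (difference of NP-40 vs SDS log2 ratios) in this document: synchronized HeLa Kyoto cells (double thymidine block for G1/S, nocodazole release for mitosis), protein amounts in NP-40 versus SDS lysates quantified by mass spectrometry, three biological replicates.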
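For solubility in G1/S (NP-40 vs SDS abundance) in this document: HeLa Kyoto cells arrested at G1/S by double thymidine block, proteins quantified by TMT10plex mass spectrometry in mild NP-40 versus SDS extracts, three biological replicates.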
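For thermal stability score vs G1/S (z-score of summed log2 fold changes over temperatures) in this document: synchronized HeLa Kyoto cells, proteins quantified by TMT10plex mass spectrometry, three biological replicates, mitosis taken 0.5 h after nocodazole release, G1/S directly after double thymidine block.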

Regarding “MELSAEYLREKLQRDLEAEHVEVEDTTLNRCSCSFRVLVVSAKFEGKPLLQRHRLVNACLAEELPHIHAFEQKTLTPDQWARERQK [BOLA2]”, in data set [1], the “solubility in G1/S (log2)” value is -0.0477. Besides, the values for the melting temperature in data set [2] (cell cycle stage: G1/S) and in data set [2] (cell cycle stage: mitosis) were 50.9 °C and 51.9 °C, respectively. The “solubility change mitosis (log2)” value in data set [3] was determined as 0.186. For the same sequence, the thermal stability score in data set [4] (setting [5]) came out at 0.374; in data set [4] (cell cycle stage: mitosis), 0.288.
“MEMEKEFEQIDKSGSWAAIYQDIRHEASDFPCRVAKLPKNKNRNRYRDVSPFDHSRIKLHQEDNDYINASLIKMEEAQRSYILTQGPLPNTCGHFWEMVWEQKSRGVVMLNRVMEKGSLKCAQYWPQKEEKEMIFEDTNLKLTLISEDIKSYYTVRQLELENLTTQETREILHFHYTTWPDFGVPESPASFLNFLFKVRESGSLSPEHGPVVVHCSAGIGRSGTFCLADTCLLLMDKRKDPSSVDIKKVLLEMRKFRMGLIQTADQLRFSYLAVIEGAKFIMGDSSVQDQWKELSHEDLEPPPEHIPPPPRPPKRILEPHNGKCREFFPNHQWVKEETQEDKDCPIKEEKGSPLNAAPYGIESMSQDTEVRSRVVGGSLRGAQAASPAKGEPSLPEKDEDHALSYWKPFLVNMCVATVLTAGAYLCYRFLFNSNT [PTPN1]”: the “solubility in G1/S (log2)” value in data set [1] worked out at 0.0951. Also, the melting temperature turned out to be 49.4 °C in data set [2] (cell cycle stage: G1/S) and 50.1 °C in data set [2] (cell cycle stage: mitosis). In addition, the “solubility change mitosis (log2)” value in data set [3] is -0.122. For the same sequence, the thermal stability score in data set [4] (setting [5]) was found to be 1.7; in data set [4] (cell cycle stage: mitosis) it was 4.54.
Regarding “MEMEQEKMTMNKELSPDAAAYCCSACHGDETWSYNHPIRGRAKSRSLSASPALGSTKEFRRTRSLHGPCPVTTFGPKACVLQNPQTIMHIQDPASQRLTWNKSPKSVLVIKKMRDASLLQPFKELCTHLMEENMIVYVEKKVLEDPAIASDESFGAVKKKFCTFREDYDDISNQIDFIICLGGDGTLLYASSLFQGSVPPVMAFHLGSLGFLTPFSFENFQSQVTQVIEGNAAVVLRSRLKVRVVKELRGKKTAVHNGLGENGSQAAGLDMDVGKQAMQYQVLNEVVIDRGPSSYLSNVDVYLDGHLITTVQGDGVIVSTPTGSTAYAAAAGASMIHPNVPAIMITPICPHSLSFRPIVVPAGVELKIMLSPEARNTAWVSFDGRKRQEIRHGDSISITTSCYPLPSICVRDPVSDWFESLAQCLHWNVRKKQAHFEEEEEEEEEG [NADK]”, the “solubility in G1/S (log2)” value in data set [1] was determined as 0.208. For the same sequence, the melting temperature in data set [2] (cell cycle stage: G1/S) amounted to 61.1 °C; in data set [2] (cell cycle stage: mitosis), 59.2 °C. Besides, in data set [3], the “solubility change mitosis (log2)” value was 0.129. Also, the thermal stability score in data set [4] (setting [5]) is -6.99; in data set [4] (cell cycle stage: mitosis), -2.68.
Consider “MENMAEEELLPLEKEEVEVAQVQVPTPARDSAGVPAPAPDSALDSAPTPASAPAPAPALAQAPALSPSLASAPEEAKSKRHISIQRQLADLENLAFVTDGNFDSASSLNSDNLDAGNRQACPLCPKEKFRACNSHKLRRHLQNLHWKVSVEFEGYRMCICHLPCRPVKPNIIGEQITSKMGAHYHCIICSATITRRTDMLGHVRRHMNKGETKSSYIAASTAKPPKEILKEADTDVQVCPNYSIPQKTDSYFNPKMKLNRQLIFCTLAALAEERKPLECLDAFGATGIMGLQWAKHLGNAVKVTINDLNENSVTLIQENCHLNKLKVVVDSKEKEKSDDILEEGEKNLGNIKVTKMDANVLMHLRSFDFIHLDPFGTSVNYLDSAFRNIRNLGIVSVTSTDISSLYAKAQHVARRHYGCNIVRTEYYKELAARIVVAAVARAAARCNKGIEVLFAVALEHFVLVVVRVLRGPTSADETAKKIQYLIHCQWCEERIFQKDGNMVEENPYRQLPCNCHGSMPGKTAIELGPLWSSSLFNTGFLKRMLFESLHHGLDDIQTLIKTLIFESECTPQSQFSIHASSNVNKQEENGVFIKTTDDTTTDNYIAQGKRKSNEMITNLGKKQKTDVSTEHPPFYYNIHRHSIKGMNMPKLKKFLCYLSQAGFRVSRTHFDPMGVRTDAPLMQFKSILLKYSTPTYTGGQSESHVQSASEDTVTERVEMSVNDKAEASGCRRW [TRMT1L]”, for which the “solubility in G1/S (log2)” value in data set [1] was -0.537. For the same sequence, the melting temperature worked out at 51.8 °C in data set [2] (cell cycle stage: G1/S) and 50.9 °C in data set [2] (cell cycle stage: mitosis). Also, the “solubility change mitosis (log2)” value in data set [3] was found to be 0.324. The thermal stability score in data set [4] (setting [5]) is -0.774; in data set [4] (cell cycle stage: mitosis), -3.
“MENQVLTPHVYWAQRHRELYLRVELSDVQNPAISITENVLHFKAQGHGAKGDNVYEFHLEFLDLVKPEPVYKLTQRQVNITVQKKVSQWWERLTKQEKRPLFLAPDFDRWLDESDAEMELRAKEEERLNKLRLESEGSPETLTNLRKGYLFMYNLVQFLGFSWIFVNLTVRFCILGKESFYDTFHTVADMMYFCQMLAVVETINAAIGVTTSPVLPSLIQLLGRNFILFIIFGTMEEMQNKAVVFFVFYLWSAIEIFRYSFYMLTCIDMDWKVLTWLRYTLWIPLYPLGCLAEAVSVIQSIPIFNETGRFSFTLPYPVKIKVRFSFFLQIYLIMIFLGLYINFRHLYKQRRRRYGQKKKKIH [HACD3]”: the “solubility in G1/S (log2)” value in data set [1] was -0.3. The results for the melting temperature in data set [2] (cell cycle stage: G1/S) and in data set [2] (cell cycle stage: mitosis) were 53.8 °C and 53.9 °C, respectively. In addition, in data set [3], the “solubility change mitosis (log2)” value is -0.00775. The thermal stability score in data set [4] (setting [5]) was -0.451; in data set [4] (cell cycle stage: mitosis), -1.3.
Take “MENSSAASASSEAGSSRSQEIEELERFIDSYVLEYQVQGLLADKTEGDGESERTQSHISQWTADCSEPLDSSCSFSRGRAPPQQNGSKDNSLDMLGTDIWAANTFDSFSGATWDLQPEKLDFTQFHRKVRHTPKQPLPHIDREGCGKGKLEDGDGINLNDIEKVLPAWQGYHPMPHEVEIAHTKKLFRRRRNDRRRQQRPPGGNKPQQHGDHQPGSAKHNRDHQKSYQGGSAPHPSGRPTHHGYSQNRRWHHGNMKHPPGDKGEAGAHRNAKETMTIENPKLEDTAGDTGHSSLEAPRSPDTLAPVASERLPPQQSGGPEVETKRKDSILPERIGERPKITLLQSSKDRLRRRLKEKDEVAVETTTPQQNKMDKLIEILNSMRNNSSDVDTKLTTFMEEAQNSTNSEEMLGEIVRTIYQKAVSDRSFAFTAAKLCDKMALFMVEGTKFRSLLLNMLQKDFTVREELQQQDVERWLGFITFLCEVFGTMRSSTGEPFRVLVCPIYTCLRELLQSQDVKEDAVLCCSMELQSTGRLLEEQLPEMMTELLASARDKMLCPSESMLTRSLLLEVIELHANSWNPLTPPITQYYNRTIQKLTA [CTIF]”: in data set [1], the “solubility in G1/S (log2)” value amounted to 0.0528. The sequence also yielded a melting temperature in data set [2] (cell cycle stage: G1/S) of 52.1 °C. Also, the “solubility change mitosis (log2)” value in data set [3] is 0.157. Also, the values for the thermal stability score in data set [4] (setting [5]) and in data set [4] (cell cycle stage: mitosis) were -0.292 and 0.109, respectively.
